# Source: PMC5389710
# Molecular target: Arabidopsis thaliana NAP1-related protein 1 (NRP1) (A. thaliana) (UniProt Q9CA59)
# Test: ITC
# Arabidopsis thaliana NAP1-related protein 1 (NRP1) (A. thaliana), sequence (Q9CA59 whole entry): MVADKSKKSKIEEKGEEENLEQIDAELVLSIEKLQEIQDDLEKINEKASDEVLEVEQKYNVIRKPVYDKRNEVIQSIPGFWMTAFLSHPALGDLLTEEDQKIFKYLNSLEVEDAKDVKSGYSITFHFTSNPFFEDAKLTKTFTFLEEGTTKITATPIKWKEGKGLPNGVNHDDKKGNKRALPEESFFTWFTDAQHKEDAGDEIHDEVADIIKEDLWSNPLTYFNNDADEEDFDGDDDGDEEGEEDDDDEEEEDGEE
substance,measurement,value
Arabidopsis thaliana cytochrome c (from UniProt Q9T0G2 1-112) (natural protein),Kd,5 µM
Chicken erythrocyte H2A–H2B histone dimer (from UniProt P02263 1-129; P0C1H3 1-126) (complex),Kd,0.1 µM
Xenopus laevis core histone H4 (from UniProt P62799 1-103) (natural protein),dH,-10.4 kcal/mol
